According to the Human Domainome abundance scans (Beltran et al. 2025):
± gives the uncertainty stated by the source.

B1: Zinc finger homeobox protein 4, residues 2086 to 2141; numbered along this chain, Q86UP3 (parent)
chain: RPRTRITDDQLKILRAYFDINNSPSEEQIQEMAEKSGLSQKVIKHWFRNTLFKERQ

Variants of: B1
Assay: abundance fitness (aPCA) (normalised: wild type 0, dead -1); higher = more abundant; growth selection in yeast, the domain comes from the species named
Conditions: Homo sapiens

Variant | abundance fitness
F18W | -0.142 ± 0.086
F18T | 0.014 ± 0.1
F18Q | 0.011 ± 0.11
F18S | -0.142 ± 0.078
F18R | -0.018 ± 0.067
F18Y | 0.033 ± 0.11
D19I | -0.061 ± 0.16
D19T | -0.104 ± 0.11
D19G | -0.089 ± 0.067
D19A | 0.011 ± 0.082
D19S | 0.142 ± 0.085
D19V | -0.071 ± 0.077
D19N | 0.07 ± 0.15
D19E | 0.054 ± 0.092
D19R | -0.009 ± 0.068
D19C | -0.072 ± 0.11
D19P | -0.149 ± 0.11
D19H | -0.333 ± 0.12
D19Q | 0.029 ± 0.11
D19M | -0.033 ± 0.095
D19K | 0.082 ± 0.13
D19F | -0.196 ± 0.14
D19L | 0.086 ± 0.079
D19Y | -0.001 ± 0.15

Variant | abundance fitness
S25Y | -0.471 ± 0.31
S25F | -0.468 ± 0.23
S25P | -0.26 ± 0.38
Q28P | -0.533 ± 0.094
Q28I | 0.06 ± 0.17
Q28A | -0.092 ± 0.076
Q28D | -0.12 ± 0.11
Q28N | -0.329 ± 0.14
Q28G | -0.178 ± 0.072
Q28R | 0.037 ± 0.065
Q28T | -0.034 ± 0.11
Q28L | -0.102 ± 0.077
Q28C | -0.244 ± 0.089
Q28W | -0.38 ± 0.085
Q28H | -0.046 ± 0.1
Q28S | -0.095 ± 0.077
Q28E | -0.155 ± 0.12
Q28M | -0.153 ± 0.11
Q28V | -0.033 ± 0.074
Q28K | 0.064 ± 0.12
Q28Y | -0.236 ± 0.12
Q28F | -0.416 ± 0.18
S23T | -0.071 ± 0.13
S23H | 0.187 ± 0.15

Variant | abundance fitness
S23P | -0.003 ± 0.11
S23K | -0.009 ± 0.13
S23Q | -0.011 ± 0.18
S23W | -0.176 ± 0.093
S23I | -0.522 ± 0.16
S23L | -0.07 ± 0.09
S23N | -0.004 ± 0.18
S23G | -0.211 ± 0.067
S23E | 0.089 ± 0.11
S23C | -0.004 ± 0.1
S23R | -0.127 ± 0.08
S23D | -0.131 ± 0.12
S23A | 0.041 ± 0.08
S23V | -0.052 ± 0.072
S23M | -0.019 ± 0.14
P24M | -0.676 ± 0.12
P24H | -0.427 ± 0.08
P24Y | -0.51 ± 0.087
P24F | -0.538 ± 0.098
P24W | -0.435 ± 0.18
P24E | -0.326 ± 0.18
P24T | -0.474 ± 0.084
P24K | -0.922 ± 0.15
P24G | -0.793 ± 0.14

Variant | abundance fitness
P24V | -0.32 ± 0.081
P24C | -0.462 ± 0.12
P24A | -0.294 ± 0.08
P24L | -0.259 ± 0.067
P24S | -0.553 ± 0.072
P24R | -0.642 ± 0.11
P24D | -0.844 ± 0.14
P24N | -0.691 ± 0.091
P24I | -0.337 ± 0.092
I29G | -0.605 ± 0.07
I29A | -0.376 ± 0.075
I29D | -0.744 ± 0.12
I29H | -0.347 ± 0.25
I29E | -0.025 ± 0.091
I29K | -0.226 ± 0.13
I29F | -0.02 ± 0.13
I29C | -0.149 ± 0.1
N21H | -0.117 ± 0.095
N21Q | -0.247 ± 0.17
N21S | -0.048 ± 0.083
N21T | 0.009 ± 0.089
N21K | -0.187 ± 0.17
N21L | -0.101 ± 0.091
N21D | -0.028 ± 0.13

Variant | abundance fitness
N21E | 0.122 ± 0.26
N21P | -0.494 ± 0.097
N21M | 0.203 ± 0.18
N21W | -0.111 ± 0.18
N21V | -0.189 ± 0.12
N21G | -0.261 ± 0.11
N21F | -0.191 ± 0.12
N21A | -0.031 ± 0.12
N21I | -0.114 ± 0.12
N21Y | -0.156 ± 0.11
N21C | -0.09 ± 0.18
E26L | -0.015 ± 0.079
E26Y | 0.048 ± 0.12
E26S | -0.076 ± 0.078
E26W | -0.322 ± 0.11
E26D | -0.069 ± 0.12
E26V | -0.056 ± 0.078
E26G | -0.154 ± 0.074
E26F | 0.111 ± 0.14
E26K | 0.039 ± 0.14
E26Q | -0.003 ± 0.094
E26M | -0.032 ± 0.09
E26P | -0.032 ± 0.093
E26A | -0.027 ± 0.077

Variant | abundance fitness
E26T | 0.133 ± 0.089
E26C | -0.211 ± 0.12
E26R | 0.021 ± 0.071
E27T | -0.185 ± 0.22
E27H | -0.59 ± 0.49
E27M | 0.082 ± 0.21
E27P | -0.24 ± 0.23
E27N | 0.129 ± 0.38
E27V | -0.071 ± 0.14
E27D | -0.18 ± 0.29
E27I | -0.261 ± 0.38
E27Q | 0.142 ± 0.18
E27K | -0.054 ± 0.25
E27W | 0.021 ± 0.21
E27G | -0.033 ± 0.096
E27R | -0.02 ± 0.1
E27L | -0.194 ± 0.12
E27S | -0.105 ± 0.17
E27A | 0.076 ± 0.15
E27Y | -0.391 ± 0.29
I20Y | -0.113 ± 0.12
I20V | 0.008 ± 0.069
I20H | -0.134 ± 0.12
I20L | -0.051 ± 0.081

Variant | abundance fitness
I20C | -0.095 ± 0.084
I20A | 0.105 ± 0.079
I20G | -0.03 ± 0.066
I20M | -0.007 ± 0.13
I20E | 0.015 ± 0.12
I20W | -0.273 ± 0.09
I20D | -0.276 ± 0.11
I20P | 0.022 ± 0.11
I20T | 0.077 ± 0.12
I20Q | 0.054 ± 0.1
I20R | -0.007 ± 0.067
I20N | 0.03 ± 0.11
I20F | -0.006 ± 0.09
I20K | 0.153 ± 0.11
N22D | -0.182 ± 0.25
N22P | 0.201 ± 0.24
N22G | 0.014 ± 0.27
N22C | -0.178 ± 0.29
N22S | 0.281 ± 0.23
N22V | 0.05 ± 0.45
N22H | -0.359 ± 0.23
N22I | 0.204 ± 0.33
N22R | 0.071 ± 0.2
